This data set deals with the molecule itself. The data set is described as follows: Western blot of transfected cells, self-association (trimer) of the fiber fusion.

B1: adenovirus type 5 fiber protein joined to full length PSTCD (other)
chain: MKRARPSEDTFNPVYPYDTETGPPTVPFLTPPFVSPNGFQESPPGVLSLRLSEPLVTSNGMLALKMGNGLSLDEAGNLTSQNVTTVSPPLKKTKSNINLEISAPLTVTSEALTVAAAAPLMVAGNTLTMQSQAPLTVHDSKLSIATQGPLTVSEGKLALQTSGPLTTTDSSTLTITASPPLTTATGSLGIDLKEPIYTQNGKLGLKYGAPLHVTDDLNTLTVATGPGVTINNTSLQTKVTGALGFDSQGNMQLNVAGGLRIDSQNRRLILDVSYPFDAQNQLNLRLGQGPLFINSAHNLDINYNKGLYLFTASNNSKKLEVNLSTAKGLMFDATAIAINAGDGLEFGSPNAPNTNPLKTKIGHGLEFDSNKAMVPKLGTGLSFDSTGAITVGNKNNDKLTLWTTPAPSPNCRLNAEKDAKLTLVLTKCGSQILATVSVLAVKGSLAPISGTVQSAHLIIRFDENGVLLNNSFLDPEYWNFRNGDLTEGTAYTNAVGFMPNLSAYPKSHGKTAKSNIVSQVYLNGDKTKPVTLTITLNGTQETGDTTPSAYSMSFSWDWSGHNYINEIFATSSYTFSYIAQEKLKVTVNGTAYDVDVDVDKSHENPMGTILFGGGTGGAPAPAAGGAGAGKAGEGEIPAPLAGTVSKILVKEGDTVKAGQTVLVLEAMKMETEINAPTDGKVEKVLVKERDAVQGGQGLIKIG
modifications: biotin on lysine 89 of PSTCD (numbering of FIG. 1)
notes: also called fiber-PSTCD, full length form
B1: the binding result is recorded as “no binding”.

B2: adenovirus type 5 fiber protein with the C-terminal 70 amino acid PSTCD domain (biotinylated) (other)
chain: MKRARPSEDTFNPVYPYDTETGPPTVPFLTPPFVSPNGFQESPPGVLSLRLSEPLVTSNGMLALKMGNGLSLDEAGNLTSQNVTTVSPPLKKTKSNINLEISAPLTVTSEALTVAAAAPLMVAGNTLTMQSQAPLTVHDSKLSIATQGPLTVSEGKLALQTSGPLTTTDSSTLTITASPPLTTATGSLGIDLKEPIYTQNGKLGLKYGAPLHVTDDLNTLTVATGPGVTINNTSLQTKVTGALGFDSQGNMQLNVAGGLRIDSQNRRLILDVSYPFDAQNQLNLRLGQGPLFINSAHNLDINYNKGLYLFTASNNSKKLEVNLSTAKGLMFDATAIAINAGDGLEFGSPNAPNTNPLKTKIGHGLEFDSNKAMVPKLGTGLSFDSTGAITVGNKNNDKLTLWTTPAPSPNCRLNAEKDAKLTLVLTKCGSQILATVSVLAVKGSLAPISGTVQSAHLIIRFDENGVLLNNSFLDPEYWNFRNGDLTEGTAYTNAVGFMPNLSAYPKSHGKTAKSNIVSQVYLNGDKTKPVTLTITLNGTQETGDTTPSAYSMSFSWDWSGHNYINEIFATSSYTFSYIAQEEGEIPAPLAGTVSKILVKEGDTVKAGQTVLVLEAMKMETEINAPTDGKVEKVLVKERDAVQGGQGLIKIG
modifications: biotin on lysine 89 of PSTCD (numbering of FIG. 1, full length PSTCD)
notes: also called fiber/PSTCD fusion protein; fiber of the biotinylated adenovirus
B2: the binding result was “binds”.

The values are drawn from patent publication US20020142355A1 (BAYLOR COLLEGE OF MEDICINE, published 2002).
